The target of the experiment is recombinant human ROR1 ectodomain containing a C-terminal Avi tag, biotinylated (human) (UniProt Q01973). As to the kind of experiment: cell-based or functional assay.

The text below walks through data of US20220401537A1.

Chain of UniProt Q01973 (Q01973 30-406): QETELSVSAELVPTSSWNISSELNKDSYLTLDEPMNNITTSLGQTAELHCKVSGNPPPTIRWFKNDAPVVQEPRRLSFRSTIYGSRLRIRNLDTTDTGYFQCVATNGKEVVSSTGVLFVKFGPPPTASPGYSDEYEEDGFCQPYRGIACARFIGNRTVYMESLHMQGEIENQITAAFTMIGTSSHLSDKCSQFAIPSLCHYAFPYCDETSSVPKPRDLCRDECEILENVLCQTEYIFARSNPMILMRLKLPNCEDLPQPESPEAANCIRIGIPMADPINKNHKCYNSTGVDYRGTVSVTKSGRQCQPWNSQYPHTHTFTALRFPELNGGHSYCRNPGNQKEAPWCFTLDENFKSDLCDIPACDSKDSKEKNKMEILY

As for “ROR1-specific 4-1BB/CD3ζ CAR backbone containing a StrepTag II (STII) sequence and two G4S linkers inserted between the R12 scFv and IgG4 hinge (from UniProt P10747 153-179; Q07011 214-255; P20963 52-163)”, the fraction of CAR T cells activated (Ca2+ mobilization, Fluo-4) during 20 minutes on a ROR1-containing bilayer is less than 10%.
